Experimental data as given in PMC4227786.

How the values were obtained:
[1] = biological target: 14-3-3θ (UniProt P27348); assay: co-immunoprecipitation; details: reference: wild type hnRNPA1; sites S4,S6
[2] = biological target: 14-3-3σ (UniProt P31947); assay: co-immunoprecipitation; details: reference: wild type hnRNPA1; sites S4,S6

binding against the reference [1]: lost
binding against the reference [2]: lost
Substance: hnRNPA1 (from UniProt P09651) S4AS6A
